Drawing on patent US20110002929A1 (Ablynx, published 2011), this text covers EC50, binding result and IC50 for ten molecules.

Where a chain is given by its changes, count along the chain named.

Sequences and labels used below:
T1: human RANK-L (human, UniProt O14788 140-317, limits assumed)
T1 construct: Soluble protein, used coated, biotinylated or labelled in ELISA, AlphaScreen, FMAT and Biacore; also called hRANK-L; soluble human RANK-L
T1 sequence (looked up): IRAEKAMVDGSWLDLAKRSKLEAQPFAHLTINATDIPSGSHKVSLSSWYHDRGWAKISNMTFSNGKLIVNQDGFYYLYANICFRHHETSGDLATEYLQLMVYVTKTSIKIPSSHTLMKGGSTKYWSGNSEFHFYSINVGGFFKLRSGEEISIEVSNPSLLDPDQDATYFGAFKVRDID

T2: mouse RANK-L (mouse, UniProt O35235 158-316, limits assumed)
T2 construct: also called murine RANK-L
T2 sequence (looked up): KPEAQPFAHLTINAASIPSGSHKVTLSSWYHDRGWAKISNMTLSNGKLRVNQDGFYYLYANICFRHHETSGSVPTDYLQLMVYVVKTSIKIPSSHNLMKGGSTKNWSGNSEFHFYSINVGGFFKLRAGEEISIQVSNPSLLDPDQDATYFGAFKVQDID

B1: RANKL16 (VHH)
VHH: EVQLVESGGGLVQAGGSLRLSCVASRRTFSSYAMGWFRQVPGKERDFVAAISTGSITIYGDSVKGRFTISRDNAKNTVYLQMNSLKPEDTAVYYCAAGKREPYLRQYTASNPYDYWGQGTQVTVSS
notes: not shown: c-myc and His6 tags
B2: RANKL21 (VHH)
VHH: B1 VHH with S30N, M34V, K43E, I56V, G60A, K99N
notes: as for B1
B3: RANKL19 (VHH)
VHH: EVQLVESGGGLVQAGDSLRLSCAASGRTVTMGWFRQAPGKEREFVASITGSGSVTNYADSVKGRFTISRDNAKNTVFLQMNSLKPEDTAVYYCAAYLPSPYYSSYYDSTKYEYWGQGTQVTVSS
notes: as for B1
B4: RANKL20 (VHH)
VHH: EVQLVESGGGLVQAGDSLRLSCAASGRTFTMGWFRQAPGTEREFVAAISGSGKITNYADSVKGRFTISRDHAKNTVFLQMDSLKPEDTAVYYCAGYLRSPYYSSFYDSAKYEYWGQGTQVTVSS
notes: as for B1
B5: RANKL17 (VHH)
VHH: EVQLVESGGGLVQVGDSLRLSCEASGRSRFSTYVMGWFRQAPGKEREFVAAVSWSSGNAYYIDSAKGRFATSRDTAKNIMYLQMNSLKPEDTAVYTCAAGRGYGLLSEYTQAPRYDYWGQGTQVTVSS
notes: as for B1
B6: RANKL22 (VHH)
VHH: EVQLVESGGGLMQTGGSLRLSCAASERTSRNYGMGWFRQAPGKEREFVAAITSAGGTTYYGDFVKGRFTISRDSAKYTVYLQMNSLKPEDTAVYWCAAKLQIGGRWHNLNDYGYRGQGTQVTVSS
notes: also called 7D12; not shown: c-myc and His6 tags
B7: RANKL1 (VHH)
VHH: EVQLVESGGGLVQAGGSLRLSCAVSGRTFSSSTMAWFRQPPGGERDFVASISTSGTRTLYADSVKGRFTISRDNAKSTGYLQMNSLKPEDTAVYFCAAVNRRGWEFWRLASGYDYWGLGAQVTVSS
notes: as for B1
B8: RANKL14 (VHH)
VHH: EVQLVESGGGLVQAGGSLRLSCAASGRTSSYYTMSWFRQDPGKEREFVAAVPLSGNTYYADPVRGRFTISRDNAKNTADLQMNSLKPEDTAVYYCAARASGSIYNRGSYAYWGQGTQVTVSS
notes: as for B1
B9: RANKL23 (VHH)
VHH: EVQLVESGGGLVQAGGSLRLSCAASGLTTVYTMAWFRQAPGKEREFVAAITRSGKTTYYADSVKGRFTISRDNAKNTVNLQMNSLKPDDTAVYYCAAKALLGMTNPAGYEYWGQETQVTVSS
notes: also called 9H5; not shown: c-myc and His6 tags
B10: RANKL4 (VHH)
VHH: KVQLVESGGGLVQTGDSLRLSCAASGRAIGSYAMGWFRQAPGKEREFVAVINYRGSSLKYADRVKGRFTISRDNAKNMVYLQMNSLKPDDTAVYYCAAQTSGADFGTTPQRYTYWGQGTQVTVSS
notes: as for B1

One experiment addresses T1, human RANK-L. Kind of experiment: ELISA (ED50), biotin-hRANK-L on neutravidin. How it is done:
(§1) Therefore 2 μg/ml neutravidin was coated overnight at 4° C. The plates were washed 5 times with 300 μl PBS and then blocked with […] 1% casein/PBS for 2 hours at room temperature. […] After extensive washing with PBS, varying concentrations of Nanobodies starting from 500 nM to 160 pM diluted in 1% casein/PBS were added to the wells and the plates were incubated for 1 hour at room temperature. Bound Nanobodies were detected by subsequent incubations of a primary mouse anti-myc antibody and a secondary anti mouse-HRP conjugate (DAKO, Glostrup, Denmark) and using TMB-H2O2 (Pierce, Rockford, Ill., USA) substrate cocktail. The reaction was stopped with H₂SO₄ and the OD was read at 450 nm.
The molecule B1 returned an EC50 of 0.953 nM. In other words, the sub-nanomolar range.
Still for that read-out and setting: the value for B2 was 0.861 nM; that for B3 was 0.506 nM.
Molecule B4 registered an EC50 of 0.306 nM. Against the preceding molecule, the EC50 is about 1.7-fold lower.
On the same count and under the same terms, the value for B5 was 0.453 nM; that for B6 was 0.379 nM.
Still for that read-out and setting: the value for B7 was 0.619 nM; that for B8 was 0.574 nM; that for B9 was 0.679 nM.
With B10, the concentration for a half-maximal effect (EC50) came to 0.38 nM. Against the preceding molecule, the EC50 is about 1.8-fold lower.

For the next experiment, the target named is T2, mouse RANK-L. Kind of experiment: ELISA, set-up as for human RANK-L. How it is done: as §1
B1: the binding result was “no binding (tested: 500 nM to 160 pM)”.
For the molecule B2, the binding result was “no binding (tested: 500 nM to 160 pM)”.
Still for that read-out and setting: the value for B3 was “no binding (tested: 500 nM to 160 pM)”; that for B4 was “no binding (tested: 500 nM to 160 pM)”; that for B5 was “no binding (tested: 500 nM to 160 pM)”.
On the same count and under the same terms, the value for B6 was “no binding (tested: 500 nM to 160 pM)”.
The same measure, in the same setting: the value for B7 was “no binding (tested: 500 nM to 160 pM)”.
Turning to B8, the binding result was “no binding (tested: 500 nM to 160 pM)”.
For B9, the binding result is given as “no binding (tested: 500 nM to 160 pM)”.
For the molecule B10, the binding result is “no binding (tested: 500 nM to 160 pM)”.

A further experiment deals with T1, human RANK-L. Kind of experiment: AlphaScreen, biotin-hRANK-L / RANK-huFc beads. How it is done:
To this mixture, the RANK acceptor beads and the streptavidin donor beads were added and further incubated for 1 hour at room temperature. Fluorescence was measured by reading plates on the EnVision Multilabel Plate Reader (Perkin Elmer) using an excitation wavelength of 680 nm and an emission wavelength of 520 nm.
B1 showed a 50% inhibitory concentration (IC50) of 2.25 nM.
With B2, the concentration for half-maximal inhibition (IC50) came to 1.58 nM.
Molecule B3 returned an IC50 of 2.24 nM.
Consider B4, for which half-maximal inhibition (IC50) was put at 1.36 nM. This IC50 lies about 1.6-fold lower than the previous one.
The same measure, in the same setting: the value for B5 was 0.737 nM.
Turning to B6, the half-maximal inhibitory concentration (IC50) was found to be 3.02 nM. Against the preceding molecule, the IC50 is about 4.1-fold higher.
Take B7: the IC50 turned out to be 0.739 nM.
The same measure, in the same setting: the value for B8 was 1.75 nM; that for B9 was 3.53 nM.
For the molecule B10, the IC50 came out at 0.582 nM. Compared with the last molecule, the IC50 is about 6.1-fold lower.
